{"source": "the DeepSol protein solubility set", "data": [{"test": "soluble on expression in E. coli; label from the status in PepcDB or PDB records", "values": [{"sequence": "MGSDKIHHHHHHMVQISETSSELIQLLRIENSAPEVLQILDHADSRYIRDLKVNVSNALVTAHISEKESALLALSIAANQKNNILISGFQKLSAEKGATIEEQNEAISCASLLAGNNVFYRFRHFQQKESYNTMQAKIKMNIMMKPVLGKEFFELISLAVSAVNGCEMCVNAHEHSVREMGATEERVWDAIRLAAVITSLDKVMS", "soluble on expression in E. coli": "not soluble"}, {"sequence": "MGSDKIHHHHHHMVQTPSKPITLDEFLKLPETEPASEYIEGKIIQKPMPQGKHSAIQSECVSVINSVVKPQRIARAFLELRCTFGDHSTVPDISVFIWSRIPREENGEIANIFLIAPDWTIEILSPDQSQTKVTKNILHCLKHGTQMGWLIDPDEQTVFVYRPQQETEVFDEPDALVPVPSFASELHLSIKDLFSWLL", "soluble on expression in E. coli": "not soluble"}, {"sequence": "MGSDKIHHHHHHMVSSSAKLHDPEEGSAANFPDIDNLKIAFGQLPSGVVIVTSQGCGGEMVGATVSSFASLSFTPPLVMLGLAQSSTTLSAILDHGHFAVHVVAEPQQDIAMRFASSRADKFSDIDFKLSPSGVPILSEFDTCFHCALERAQSAGDHQLLIGRIVDVSTVERDTTPVAWFNRRFHICEPRALV", "soluble on expression in E. coli": "not soluble"}, {"sequence": "MGSDKIHHHHHHMVTTRKPLRAAIIGLGRLGERHARHLVNKIQGVKLVAACALDSNQLEWAKNELGVETTYTNYKDMIDTENIDAIFIVAPTPFHPEMTIYAMNAGLNVFCEKPLGLDFNEVDEMAKVIKSHPNQIFQSGFMRRYDDSYRYAKKIVDNGDIGKIIYMRGYGIDPISGMESFTKFATEADSGGIFVDMNIHDIDLIRWFTGQDPVQAYGLTSNIAAPQLADIGEFETGVAQLKMSDGVIATLIGGRHAAHGNQVELEVMGSNGWVRIGEHPDLNRVTVFNDQGVVRPSLQSFGERFDTAFTDEVQDFVNNVIVGKQPEVTVDDGIKALKIAKACQQSANIGKLVDIQL", "soluble on expression in E. coli": "not soluble"}, {"sequence": "MGSDKIHHHHHHMWFRSKPGKSRAAAKGRDVQSTPKASTDVVLERVRLPVDLLQPGMKVVKLDRPWTEVPVLFQGFTLQTEAEARVLRQYCAWVVVEDEAERLAPVLDQIPHLKQRTTEPLQETRTLEQELPRAADTWSRTQQFVEKLIRDIEQNNDLELASARPLIRSCVDSVKTNASAMFWMARIKHRDAYTAEHCLRVAILTVAFARFLGLPEDDLEVAGMCGLLHDIGKLRVPDEILNKPGPLSPQEYEVMRKHTTLGHELLKQDPSLDPIISDVTLHHHERIDGRGYPQQLPEWQISRFARLIAIVDAYDAMTSDRCYRDGMSPADAVRILYKNRAQQFDADMVEAFIRMIGIYPPGSLVELNTGEVALVVSTHPGRKLKPKVEILLDNNKHPVTPRVMDLGSQTTTDGPVREIKAPLPDGAFGISLEGRVKQLMAKTIANHS", "soluble on expression in E. coli": "not soluble"}, {"sequence": "MGSDKIHHHHHHMWFSLTYAIIMHSLTTTRKMLQRLDVYLTSFEWGNFSKSKLSILQAFLKIATKDGYDAVSMRSLAKAVDLKPPTMYSHFPAGKDQIVSSAFRWHYYSFAMAVKEGLSQSETLEEYWSALIRVHIIQQIKHPENDLFDMLMATDRLGSILPTDLRSEMIEWLSFCDFMYESIATDLGIDDAKQKSKIIRVTLDGANSWWKWDDSQENLEECIRYAERIAAGILKI", "soluble on expression in E. coli": "not soluble"}, {"sequence": "MGSDKIHHHHHHMWSLMHPYLPATVRKWTNLNLSNHSFSLNTMKTKRLSEFFPGVRSYYIVGEIAIITPKRVNVDYNLVAEKIMQAHPKIKAVYLKKKVKGELRTNELEFLSGERISSTIYKENGVLFYVDINKVYVNPSLSGDRLKNLELVEEGSTVLDAFTGYGAIALNIAHKKRVYVVAGDINIDGLYMLKKSLSLNKIKGMIDIVQYDAHHLPFRDKVFKLSFGDNPTLIIDFKEELCRVSENVVFYILCESEDKANSSLGRTSWIKINDYSKNLFIFKGLVRC", "soluble on expression in E. coli": "not soluble"}, {"sequence": "MGSDKIHHHHHHMYDNDLWFATINLPYRQKLELLRIYKTSDEILYNFKNSELIQKYKFDIEKINYIKDEMKKSGMKIVFWNDDDYPKVLKNYDDMPYGLFYMGNIKKLNELNYNVAIVGSRRCTQYGKDITTIISREISINGIGIISGMARGIDTYAHKICLENNGYTCAVLGCGADVIYPKENKNLYCQIIRNGCIISQYKPNTKPLPYNFPIRNKIISGLSNLVLVTEADIKSGSIITASSALEQGKDVGAVPGSVFSKMSRGTNKLIQDGAHVIKDIDDVFGILNFQKINFKKIRNNSSYSSMPENQRQIYDLVSDKPIHVDDIKRCLNIDIQELYELLFEMQLKNKILCLSGSYYVRVNDCL", "soluble on expression in E. coli": "not soluble"}, {"sequence": "MGSDKIHHHHHHMYFELKENRPHGTPENPFSQYHISDVKRAFQIPVHWHDELEIIYVKQGKLHVTISGENYIGSPKDAFVVSPGSLHLMGSPTGDADYYTFLFPLEYISFQTDDLMEKSILSPLKRGRLMISPQINDTAADICERLIEINEQISGKNAEKTDAANIEAQFETKITLIKFIRKMWRNGLILENGTNGTNTTEKEMITYIRQNYTREISLKEFGAQFHLSEKYISRYFKEHFHITLSQYVNHLRLEHARQLLEESTASVTEVAMCSGYQNVSYFIRSFKKMYGVSPLKYRNFQTLP", "soluble on expression in E. coli": "not soluble"}, {"sequence": "MGSDKIHHHHHHMYGNKIVFSGLENIKDCCKMKITRDELLIAAFKLFMSVNYEKASFAELGKMLGMSKAGIFKYYKNKQELFIAVVDKFWFSTQNPRNKFTETNGTFAEFIDEYVRGVQRTMDMLGDLIGAEREKVAQGKFTYHAQYFHFLFQLLQYDPDAKEKLRNLVEVDYAYWRAAIQRAIATGELREDVDVEDAVVMFRQVYMGLSFEMAFMGGLNTQRLAKHLHAVYSLLKR", "soluble on expression in E. coli": "not soluble"}, {"sequence": "MGSDKIHHHHHHMYNEYQPSLLLAPYIDKYWEFKGNPDYGMKINILPDGCTDFIFTLGEVADIAEQESLIMQPYRSYFVGPMSRYSTLITYAKSIHMFGIRFLPCGLFRFMQLPLEELGNQRISTFESGGIFNDSLAERLCEQPYIQDKIRLIESFLTQALCTNNKIEKQISYAVDCINLSKGQLPIRSLVENVCLCQRHFERKFKHQTGYSPKEYSRIIKFKNAVDLLRSTSSNQLFSVAIEAGYYDTAHLSKEIKALSGNTPGSFLSLPVTEETTLTYLKL", "soluble on expression in E. coli": "not soluble"}, {"sequence": "MGSDKIHHHHHHMYPGCRLCINIGDQFARSVYYGRYKVIPIRTEIIKFCETMGFDYMGAIIWQKVTTTNTTGGATIMGSFPYPRNGILKLDYEFILFFKKQGNAPKPTREQKERSVISKEDWNTYFSGHWYFSGVKQEGHIAMFPEELPARLIKMFAFVGDTVLDPFLGSGTTSMAARNLERNSIGYEINQDFIPAIRQKLNVCQMDIHGAEYSFLEDSATIDCEQEIEKLPYVFKDPHKLDKKIDPKKLLFGSKIDRNSADREEYFSVKEVISPEVIRLSNGLLIRLMGVRENTAMNGLAVNFITEKTKGQKIFLKFDLQKHDSQNRLLCYVYLKNKTFLNAHLIKEGLAIVDRSVDFRYKDKFMKLEAQCG", "soluble on expression in E. coli": "not soluble"}, {"sequence": "MGSDKIHHHHHHMYPRYSEINVKEALSDTPVVFVMGPRQAGKTTLVKSLIMDMGSENWTYITLDDQAQFEIAQADPVGFVRNLPSTRIALDEVQRLPELFVSIKQAVDEQRSPGRFLLTGSANALLLPRLSDSLAGRMESVRLMTLSECEIQGRQPSFLIKLLREEAPSTQDIRVRDHLLQRLVTGCFPEPLQRANERRRQAWYQQYTSTLIQRDIRDLTHIDHPDLMAKLLKLTAFYAGKLVNLTELGGKLGLDRLTIKKYMALLEQLFLVEQLPAWHSNEYKRLVKTPKLHPVDTGMMCAVRGLNQERLLKQPGDFGLVLESFVYNELRKQSVWIDEPLNFYHYRDKDKVEVDVVIENTMGDCFAIEIKAAATLNTKDFTGLKRFQSVAGDRFKIGVLLYDGDHTTAFGDNLYAVPVGALWS", "soluble on expression in E. coli": "not soluble"}, {"sequence": "MGSDKIHHHHHHMYQELPPLPWLRAFDASARLGNFTLAAQELGLTPSAVSYQVRGLEATLGHKLFVRKQKSLFLTRLGQAYLPVVSKAFGDLEATTSNLFGKSAAQEITLRCLSSLNMLWLAPRLSRFQAQHPDCRLRVLSALWGETPEALQIDIDIRYGNGSWSDGEVTRLMHHEVLAVCAPALHPGPDPQAIASCPLIEVIGVTDTWHHFFALHGLAPPSSGPALKVDQSLIALELATRGMGVALIARVFAQRYLESGALVEATDLALPAREGHYIVQPEARNHFRPEVAALKDWLLQEAAQTGC", "soluble on expression in E. coli": "not soluble"}, {"sequence": "MGSDKIHHHHHHMYQVPLEMICRHDRTAEVCRAAVEEDGWQLENVPEEMKTPELCRKALETEAGFGNDFHRGLVQHIPSPEVCMEVLKECRENNPEELYGVAVAIRPEVMNGEMADFLLPLDGRCISILPVHLQTPERVRVAVETSGMSAVGRGGVPKSLLTPDVYVRCAAHSRESLMMIPWAERSPEVCLMAKTLYPDIVKNHPEFVPESVRNQDSIYTLNSLMESLTGEKFSYRQMTDFYNGKPLDVKRMETPDGVQKDKAVKFDKETGKFSFSDIRQERKRGLKM", "soluble on expression in E. coli": "not soluble"}, {"sequence": "MGSDKIHHHHHHMYSDQTYEVIKNRTLENINLDIYKGEGSFLNNMVSGNNLELSKIYLELSKMHKMAFIQDTYNQFLDKRVNEFGVYRKLGTESNGEVEFIGEKGTVINNGTIISYRDLLFVVIKDVTIGSEEGDNSPVQALEVGKKYNLPTNCEFKLVDNISGVTKITNTRSFEGGTDIETDEELKERFYKIQRNQATSGNKAHYEEWALEVDGVYNVKVYPRWDGPGTVKVLIFGKNNQAVDTETIERCQQHIDEEKPIGPTITVVTPLPIEISISAVMKLEDGYTLDNVKESFLESINTYFRDIRGEIIYTKVMGILINTTGVHDLSNLLINGSTDNITINEDKIPSVTTVNFSEVENQ", "soluble on expression in E. coli": "not soluble"}, {"sequence": "MGSDKIHHHHHHMYVAVKGGEKAIEAAHQLQSCRRRGCTDIPELDCSQIEQQLNLAVDRVMTEGNIYDRQLAALAIKQASGDLVESIFLLRAYRSTLPRWGISQPLNTPDMRLERRVSAIFKDLPGGQLLGPTYDYTHRLLDFSLLADGEDPVAPQPDAVYEDEGTREHIPHAFQFLAQQHLVPERNISDDSNPSDITMEPPSYPGTRAARLQQLFRGDEGFLLSLGYSTQRGYGRNHPFVSEIRTGYITVSIVAEEVGFAIDIGEILLTECETVNGFVKPANDAPHFTRGYGLAFGRSERKAITVALADRALQAADYQEEVRGPAQDEEFVLSHADNVEAAGFVSHLKLPHYVDFQSELELLKRLREEYLASVPRSKA", "soluble on expression in E. coli": "not soluble"}, {"sequence": "MGSDKIHHHHHHMYVLAIDQSTSGTKAIIFDEKGGIVHRVTVYHKQYYPKPGWVEHDPEEIFRNTLDACRKVIEESGIKPLEIEALAITNQRETTILWEKKSGKPVYNAVVWQCQRGASLCEEIKKRGLEGKIKEKTGLVVDPYFSASKIRWILDNVEGVKNKAKQGEIAFGTVDSWLIWKLTKGEVHATDFSNASRTLLLNIHELRWDEEVLEIFEIPPEILPELKSSDSVFGYTDLGFLPKKIPIVGVMGDSSAALFGQGGFYSGDIKVTYGTGSSTMLNIGEKPNVSDSPIVCSVGWVVKETSSYVLEGNIHSAGDTIVWLKEKLGIISDPSETEKIALSLENNGGVYLVPAFVGLGAPYWRSDVKAAILGLQRNHGKEHVVRAALESIAYQVRDIFEEMVRISSKEPTEVRADGGITRNRFLMQFQADILNIPVLVSNIEEVSARGVAFVALLHLGAFSDLEEIRQKITYREKYEPRMGDELREMYYEGWKTAIRKLLTE", "soluble on expression in E. coli": "not soluble"}, {"sequence": "MGSDKIHHHHHHNEKQDWVGTWTASPQPTWGTDFALPVKMVPKLENQTIRQTVRTSVGGRRFRIVLSNEYSNVPIQIGEIRAARAGEDSKITAGTDRAVTFGGQAKATVPAGAPLVSDPVELPLDALSRLSISVYLPQPTPIATFHWDGKQTAYIGDGNQTASETIAAAQTTDARTLVSEILVDAPANNGAVIAIGDSITDGNGATLDADNRWPDVLAERLVSKQVSVLNAGISGARLLDDAMGVKASARFNRDVLAQPGVKAVILLIGINDISWPGTPFAPEKSLPSLAALTTGYLQLAAQAHAHNLIIVGGTLTPFEGALSGTPLDAYYTPEKEALRQKVNNWIRTSGAFDAVVDFDLLLRDPLHPTRLLPEFDSGDHLHPGDKGNRAMAEAIDLGQLIKN", "soluble on expression in E. coli": "not soluble"}]}]}
